Here are results for two molecules from patent publication US20240261378A1 (UNM RAINFOREST INNOVATIONS, published 2024).

In one experiment the target is T1, endogenous TRIM16 (human, UniProt O95361 1-564).
T1 construct: Endogenous protein, immunoprecipitated from cell lysates
Description: co-IP of endogenous proteins, HeLa lysates.

Another experiment deals with Optineurin (UniProt Q96CV9 1-577, limits assumed). Description: GST-galectin-8 pull-down with Sequestosome 1-like receptors.
Experiment [1] deals with T2, [35S] myc-HA-TRIM16 wild type (in vitro translated) (human, UniProt O95361 1-564, [35S]-methionine radiolabel).
T2 construct: not shown: Myc-HA tag
Put plainly: GST pull-down of in vitro translated 35S-labelled TRIM.

Experiment [2] has as its target T3, 35S-Myc-HA-TRIM21 (in vitro translated) (human, UniProt P19474 1-475, [35S]-methionine radiolabel).
T3 construct: not shown: Myc-HA tag
The experiment is described as above.

Chain of Optineurin (Q96CV9 whole entry): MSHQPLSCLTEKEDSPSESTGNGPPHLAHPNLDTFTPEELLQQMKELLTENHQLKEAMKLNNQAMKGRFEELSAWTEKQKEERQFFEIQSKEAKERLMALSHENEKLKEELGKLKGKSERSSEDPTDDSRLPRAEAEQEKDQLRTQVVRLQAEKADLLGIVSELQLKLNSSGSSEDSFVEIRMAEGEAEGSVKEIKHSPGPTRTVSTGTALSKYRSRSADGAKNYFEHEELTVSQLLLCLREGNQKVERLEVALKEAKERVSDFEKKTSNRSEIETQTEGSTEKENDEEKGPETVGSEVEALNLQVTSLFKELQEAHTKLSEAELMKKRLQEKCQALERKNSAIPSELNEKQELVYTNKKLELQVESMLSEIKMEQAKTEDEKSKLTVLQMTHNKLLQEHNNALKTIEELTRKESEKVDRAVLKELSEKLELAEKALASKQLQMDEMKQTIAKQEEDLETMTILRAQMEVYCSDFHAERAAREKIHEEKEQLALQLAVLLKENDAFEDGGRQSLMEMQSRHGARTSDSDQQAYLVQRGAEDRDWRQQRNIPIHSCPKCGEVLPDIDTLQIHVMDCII
T3 sequence (P19474 whole entry): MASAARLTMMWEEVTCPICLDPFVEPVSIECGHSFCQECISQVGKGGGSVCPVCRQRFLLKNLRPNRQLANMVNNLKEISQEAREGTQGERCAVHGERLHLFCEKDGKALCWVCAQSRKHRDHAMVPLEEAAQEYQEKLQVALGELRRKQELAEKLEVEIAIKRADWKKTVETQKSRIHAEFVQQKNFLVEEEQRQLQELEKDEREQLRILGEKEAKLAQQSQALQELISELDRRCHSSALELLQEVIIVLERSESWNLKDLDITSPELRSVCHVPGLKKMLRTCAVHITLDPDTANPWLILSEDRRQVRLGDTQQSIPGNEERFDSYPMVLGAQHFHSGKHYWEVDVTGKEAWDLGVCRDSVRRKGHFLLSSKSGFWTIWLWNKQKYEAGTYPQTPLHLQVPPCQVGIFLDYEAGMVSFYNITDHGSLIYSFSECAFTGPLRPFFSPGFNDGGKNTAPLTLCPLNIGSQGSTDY
Description for Optineurin: GST-fusion proteins were expressed in Escherichia coli SoluBL21 (Amsbio). […] The [³⁵S] labeled proteins were produced using the TNT T7 Quick Coupled Transcription/Translation System (Promega) in the presence of [³⁵S] L-methionine. The proteins were eluted from washed beads by boiling in SDS-PAGE gel loading buffer. separated by SDS-PAGE, and radiolabeled proteins were detected in a Fujifilm bioimaging analyzer BAS-5000 (Fuji).

B1: endogenous ULK1 (enzyme, UniProt O75385 1-1050, looked up)
chain: MEPGRGGTETVGKFEFSRKDLIGHGAFAVVFKGRHREKHDLEVAVKCINKKNLAKSQTLLGKEIKILKELKHENIVALYDFQEMANSVYLVMEYCNGGDLADYLHAMRTLSEDTIRLFLQQIAGAMRLLHSKGIIHRDLKPQNILLSNPAGRRANPNSIRVKIADFGFARYLQSNMMAATLCGSPMYMAPEVIMSQHYDGKADLWSIGTIVYQCLTGKAPFQASSPQDLRLFYEKNKTLVPTIPRETSAPLRQLLLALLQRNHKDRMDFDEFFHHPFLDASPSVRKSPPVPVPSYPSSGSGSSSSSSSTSHLASPPSLGEMQQLQKTLASPADTAGFLHSSRDSGGSKDSSCDTDDFVMVPAQFPGDLVAEAPSAKPPPDSLMCSGSSLVASAGLESHGRTPSPSPPCSSSPSPSGRAGPFSSSRCGASVPIPVPTQVQNYQRIERNLQSPTQFQTPRSSAIRRSGSTSPLGFARASPSPPAHAEHGGVLARKMSLGGGRPYTPSPQVGTIPERPGWSGTPSPQGAEMRGGRSPRPGSSAPEHSPRTSGLGCRLHSAPNLSDLHVVRPKLPKPPTDPLGAVFSPPQASPPQPSHGLQSCRNLRGSPKLPDFLQRNPLPPILGSPTKAVPSFDFPKTPSSQNLLALLARQGVVMTPPRNRTLPDLSEVGPFHGQPLGPGLRPGEDPKGPFGRSFSTSRLTDLLLKAAFGTQAPDPGSTESLQEKPMEIAPSAGFGGSLHPGARAGGTSSPSPVVFTVGSPPSGSTPPQGPRTRMFSAGPTGSASSSARHLVPGPCSEAPAPELPAPGHGCSFADPITANLEGAVTFEAPDLPEETLMEQEHTEILRGLRFTLLFVQHVLEIAALKGSASEAAGGPEYQLQESVVADQISLLSREWGFAEQLVLYLKVAELLSSGLQSAIDQIRAGKLCLSSTVKQVVRRLNELYKASVVSCQGLSLRLQRFFLDKQRLLDRIHSITAERLIFSHAVQMVQSAALDEMFQHREGCVPRYHKALLLLEGLQHMLSDQADIENVTKCKLCIERRLSALLTGICA
B1: the binding result with endogenous TRIM16 is given as “binds”.

B2: GST-Galectin-8 (other)
chain: MMLSLNNLQNIIYNPVIPFVGTIPDQLDPGTLIVIRGHVPSDADRFQVDLQNGSSMKPRADVAFHFNPRFKRAGCIVCNTLINEKWGREEITYDTPFKREKSFEIVIMVLKDKFQVAVNGKHTLLYGHRIGPEKIDTLGIYGKVNIHSIGFSFSSDLQSTQASSLELTEISRENVPKSGTPQLPSNRGGDISKIAPRTVYTKSKDSTVNHTLTCTKIPPMNYVSKRLPFAARLNTPMGPGRTVVVKGEVNANAKSFNVDLLAGKSKDIALHLNPRLNIKAFVRNSFLQESWGEEERNITSFPFSPGMYFEMIIYCDVREFKVAVNGVHSLEYKHRFKELSSIDTLEINGDIHLLEVRSW
notes: not shown: GST tag (fusion expressed in E. coli SoluBL21)
Regarding B2, the binding result (with Optineurin; in experiment [1]; in experiment [2]) was “no binding” throughout.
